The record followed here is paper PMC6635533.

Assay [1] concerns the target RocA cytoplasmic domain (amino acids 226 to 451) with a C-terminal FLAG tag, expressed in GAS M18 strain H566 (strain CYT_F) (Streptococcus pyogenes (group A Streptococcus), serotype M1 strain 854). In words: cross-linking; live GAS M18 strains treated with 1% formaldehyde (10 min, room temperature), quenched with 250 mM glycine; protoplast preparations, SDS-PAGE, anti-FLAG blot.

For assay [2], the target named is RocAM1 with a C-terminal FLAG tag, full length (amino acids 1 to 451), expressed in GAS M18 strain H566 (strain M1_F) (Streptococcus pyogenes (group A Streptococcus), serotype M1 strain 854). Described as above.
Assay [3] has as its target RocAM3 with a C-terminal FLAG tag (amino acids 1 to 416), expressed in GAS M18 strain H566 (strain M3_F) (Streptococcus pyogenes (group A Streptococcus), serotype M3 strain 188). Described as above.
In assay [4] the target is RocA_(FLAG) expressed from a single chromosomal copy in GAS M1 strain 854 (strain 854_chF) (Streptococcus pyogenes (group A Streptococcus), serotype M1 strain 854). In words: cross-linking; formaldehyde cross-linking with GAS M1 strain 854_chF (native expression level); RocA_(FLAG) affinity purified from the protoplast lysate for detection by anti-FLAG blot.

Several values for one entry are separate records, joined by “and”; a condition that tells them apart may be missing. Equal values may be shown once.

By stoichiometry N is commonly meant the number of molecules, sites or subunits per partner or assembly. Substance “RocA cytoplasmic domain (amino acids 226 to 451) with a C-terminal FLAG tag, expressed in GAS M18 strain H566 (strain CYT_F) (domain or fragment)” came in with a stoichiometry N in assay [1] of 2.
Take “RocAM1 with a C-terminal FLAG tag, full length (amino acids 1 to 451), expressed in GAS M18 strain H566 (strain M1_F) (natural protein)”: in assay [2], the stoichiometry N was 2 and 4.
“RocAM3 with a C-terminal FLAG tag (amino acids 1 to 416), expressed in GAS M18 strain H566 (strain M3_F) (natural protein)” registered a stoichiometry N in assay [3] of 2.
In the case of “RocA_(FLAG) expressed from a single chromosomal copy in GAS M1 strain 854 (strain 854_chF) (natural protein)”, in assay [4], the stoichiometry N is 2.
